From article PMC3682517 come the findings set out here.

The assay deals with GST-AKAP79. Nature of the assay: phage display recovery; RII phage recovered by GST-AKAP79 compared with GST alone; pilot study (supplemental Fig. S1B).
Chain of GST-AKAP79 (P24588 whole entry): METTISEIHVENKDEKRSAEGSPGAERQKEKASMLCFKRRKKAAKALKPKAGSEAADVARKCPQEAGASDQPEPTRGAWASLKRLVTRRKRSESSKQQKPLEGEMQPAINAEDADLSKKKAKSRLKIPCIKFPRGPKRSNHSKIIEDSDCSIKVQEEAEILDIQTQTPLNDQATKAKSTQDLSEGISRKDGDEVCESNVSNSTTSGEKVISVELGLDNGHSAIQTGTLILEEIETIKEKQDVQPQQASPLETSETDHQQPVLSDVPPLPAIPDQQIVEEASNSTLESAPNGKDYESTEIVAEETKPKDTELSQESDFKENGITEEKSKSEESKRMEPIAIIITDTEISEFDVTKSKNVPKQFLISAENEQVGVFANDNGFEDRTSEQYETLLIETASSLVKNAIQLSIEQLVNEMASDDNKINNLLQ

Chain of RII phage: PKA RIIα (residues 1–45) displayed on the T7 capsid protein (P13861 2-404): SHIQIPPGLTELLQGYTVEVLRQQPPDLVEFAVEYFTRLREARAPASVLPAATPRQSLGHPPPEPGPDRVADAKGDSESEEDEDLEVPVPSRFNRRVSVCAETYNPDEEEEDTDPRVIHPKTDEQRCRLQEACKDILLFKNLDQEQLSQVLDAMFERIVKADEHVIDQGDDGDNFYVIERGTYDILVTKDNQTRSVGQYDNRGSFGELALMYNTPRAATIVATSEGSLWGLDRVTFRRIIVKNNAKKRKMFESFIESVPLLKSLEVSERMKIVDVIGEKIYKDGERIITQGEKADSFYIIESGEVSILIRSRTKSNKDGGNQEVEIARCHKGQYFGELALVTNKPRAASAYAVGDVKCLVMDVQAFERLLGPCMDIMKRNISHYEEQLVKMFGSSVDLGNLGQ

With “RII phage: PKA RIIα (residues 1–45) displayed on the T7 capsid protein (from UniProt P13861 1-45) (domain or fragment)”, the fold more phage recovered than with GST alone came out at 300 fold.
